The source of these data is patent US20200277377A1 (WUXI BIOLOGICS SHANGHAI, published 2020).

The target in one assay is PD-1 (Homo sapiens (Human), UniProt Q15116 25-170). Put plainly: specificity ELISA on coated antigens, OD. The protocol:
(§1) In the ELISA assay, the testing antibodies, isotype control antibodies were tested binding to 10 different target antigens including Factor VIII, FGFR-ECD, PD-1, CTLA-4.ECD, VEGF, HER3.ECD, OX40.ECD, 4-1BB.ECD, CD22.ECD, CD3e.ECD. A 96-well plate was coated with the individual antigens (2 μg/mL) at 4° C. overnight. After 1 hour blocking with 2% BSA in PBS, wash plate 3 times with 300 μL PBST. Testing antibodies, as well as isotype control antibodies were diluted to 10 μg/mL in PBS containing 2% BSA, then were added to the plate and incubated at room temperature for 2 hours. After 3 times washing with 300 μL PBST, HRP-conjugated goat anti-human IgG antibody (1:5000 diluted in 2% BSA) was added to the plate and incubated at room temperature for 1 hours. Finally, the plates were washed six times with 300 μL PBST. The color was developed by dispensing 100 μL of TMB substrate for 12 min, and then stopped by 100 μL of 2M HCl.

The next assay deals with 4-1BB.ECD (Homo sapiens (Human), UniProt Q07011 24-186). In words: specificity ELISA on coated antigens, OD. The protocol:
as §1
In general terms: In an ELISA, binding on a coated surface is turned into a signal by an enzyme label.

A further assay has as its target CD3e.ECD (Homo sapiens (Human), UniProt P07766 23-126). In words: specificity ELISA on coated antigens, OD. The protocol:
as §1

The target of another assay is HER3.ECD (Homo sapiens (Human), UniProt P21860 20-643). Put plainly: specificity ELISA on coated antigens, OD. As for the experimental part:
as §1

The next assay has as its target T1, human CTLA-4.ECD.hFc (human, UniProt P16410 36-161).
T1 construct: extracellular domain; also called hCTLA-4.ECD.hFc; not shown: human Fc tag (hFc)
T1 sequence (looked up): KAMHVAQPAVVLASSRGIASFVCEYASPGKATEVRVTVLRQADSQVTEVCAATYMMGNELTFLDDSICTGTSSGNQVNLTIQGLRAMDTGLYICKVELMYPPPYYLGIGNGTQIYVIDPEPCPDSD
Put plainly: competition ELISA, coated human CTLA-4.ECD.hFc, competitor CD86-6×His. As for the experimental part:
Plates were coated with human CTLA-4.ECD.hFc (0.5 μg/mL) at 4° C. for 16-20 hours. […] After washing three times with PBS containing 0.05% Tween 20, biotinylated anti-His tag antibody was 1:2000 diluted and added. The plates were incubated at room temperature for 1 hour. The bound ligands were detected by HRP conjugated streptavidin (1:20000). The color was developed by dispensing 100 μL of TMB substrate for 8 mins, and then stopped by 100 μL of 2N HCl.

The target of another assay is T2, hCTLA-4.ECD.hFc-Biotin (human, UniProt P16410 36-161, biotinylated (sites not given)).
T2 construct: extracellular domain; also called Biotinylated CTLA-4.ECD.hFc; biotinylated human CTLA4.ECD.hFc; not shown: human Fc tag (hFc)
T2 sequence (looked up): T1 sequence (looked up)
Put plainly: FACS competition, hCTLA-4.ECD.hFc-Biotin on CD80-expressing CHO cells. The protocol: PE conjugated Streptavidin was purchased from eBioscience (Catalog number 12-4317).
Then the mixtures of antibody and CTLA-4 were added to the cells and incubated for 1 hour at 4° C. The cells were washed two times with 200 μL FACS buffer (DPBS containing 1% BSA). Streptavidin PE 1 to 333 diluted in FACS buffer was added to the cells and incubated at 4° C. for 1 hour. Additional washing steps were performed two times with 200 μL FACS buffer followed by centrifugation at 1500 rpm for 4 minutes at 4° C. Finally, the cells were resuspended in 100 μL FACS buffer and fluorescence values were measured by flow cytometry and analyzed by FlowJo.

The next assay concerns the target T3, human CTLA-4.ECD-6×His (human, UniProt P16410 36-161).
T3 construct: extracellular domain; also called WBP316.hCTLA-4.ECD-6×His; hCTLA4-His (WT)
T3 sequence: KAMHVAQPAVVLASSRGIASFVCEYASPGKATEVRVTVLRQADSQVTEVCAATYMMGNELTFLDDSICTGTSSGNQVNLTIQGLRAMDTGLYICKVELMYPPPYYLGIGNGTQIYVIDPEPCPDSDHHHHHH
In words: ELISA, coated human CTLA-4.ECD-6×His. The protocol:
ELISA was used to test binding of anti-human CTLA-4 antibodies to human, murine and cynomolgus monkey CTLA-4 protein. A 96-well plate was coated with human CTLA-4.ECD-6×His (1.0 μg/mL), cynomoguls monkey CTLA-4.ECD-6×His (0.5 μg/mL) or mouse CTLA-4.ECD-6×His (0.5 μg/mL) at 4° C. for 16-20 hours. After 1 hour blocking with 2% BSA in DBPS, testing antibodies, as well as positive and negative control antibodies were added to the plates and incubated at room temperature for 1 hour. The binding of the antibodies to the plates were detected by HRP-conjugated goat anti-human IgG antibody (1:5000 dilution) with 1 hour incubation. The color was developed by dispensing 100 μL of TMB substrate for 8 mins, and then stopped by 100 μL of 2N HCl.

The target in assay [1] is T4, full length human CTLA-4 on cells (human, UniProt P16410 36-223).
T4 construct: whole, on cells; also called CTLA-4-expressing cell line
T4 sequence (looked up): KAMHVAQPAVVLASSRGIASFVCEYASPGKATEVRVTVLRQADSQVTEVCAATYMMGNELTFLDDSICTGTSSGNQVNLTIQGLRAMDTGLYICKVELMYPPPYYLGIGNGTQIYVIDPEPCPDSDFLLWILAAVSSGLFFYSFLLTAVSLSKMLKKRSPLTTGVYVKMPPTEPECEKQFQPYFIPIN
In words: flow cytometry affinity on cells expressing human CTLA-4. The protocol:
Briefly, HEK293 cells expressing human CTLA-4 were transferred in to 96-well U-bottom plates (BD) at a density of 5×10⁴ cells/well. Testing antibodies were 1:2-fold serially diluted in PBS with 1% BSA and incubated with cells at 4° C. for 1 hour. After centrifugation at 1500 rpm for 4 min, the supernatant was discarded. The secondary antibody, FITC conjugated goat anti-human IgG Fc (3.2 FITC per IgG, Jackson Immunoresearch Lab), was added to re-suspend cells to final concentration 14 μg/ml, and incubated at 4° C. in the dark for 30 min. The cells were then washed once and re-suspended in PBS with 1% BSA, and analyzed by flow cytometery (BD). Fluorescence intensity was converted to bound molecules/cell based on the quantitative beads (Quantum™ MESF Kits, Bangs Laboratories). KD was calculated using Graphpad Prism5.
The affinity of humanized antibodies binding to cell surface CTLA-4 was measured by flow cytometry method, modified from Benedict's method [Benedict 1997 JIM].
In general terms: Flow cytometry measures light scatter and fluorescence of single cells or particles in a stream.

Sequence of PD-1 (Q15116 25-170 limits assumed): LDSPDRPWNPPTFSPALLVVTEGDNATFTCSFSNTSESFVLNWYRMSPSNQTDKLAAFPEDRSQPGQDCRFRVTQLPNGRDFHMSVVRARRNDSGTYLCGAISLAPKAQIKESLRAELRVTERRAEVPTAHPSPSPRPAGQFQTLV
Sequence of CD3e.ECD (P07766 23-126 limits assumed): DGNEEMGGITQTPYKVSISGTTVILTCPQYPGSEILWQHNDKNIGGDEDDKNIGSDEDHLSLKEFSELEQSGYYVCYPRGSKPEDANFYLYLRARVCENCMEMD
Sequence of HER3.ECD (P21860 20-643 limits assumed): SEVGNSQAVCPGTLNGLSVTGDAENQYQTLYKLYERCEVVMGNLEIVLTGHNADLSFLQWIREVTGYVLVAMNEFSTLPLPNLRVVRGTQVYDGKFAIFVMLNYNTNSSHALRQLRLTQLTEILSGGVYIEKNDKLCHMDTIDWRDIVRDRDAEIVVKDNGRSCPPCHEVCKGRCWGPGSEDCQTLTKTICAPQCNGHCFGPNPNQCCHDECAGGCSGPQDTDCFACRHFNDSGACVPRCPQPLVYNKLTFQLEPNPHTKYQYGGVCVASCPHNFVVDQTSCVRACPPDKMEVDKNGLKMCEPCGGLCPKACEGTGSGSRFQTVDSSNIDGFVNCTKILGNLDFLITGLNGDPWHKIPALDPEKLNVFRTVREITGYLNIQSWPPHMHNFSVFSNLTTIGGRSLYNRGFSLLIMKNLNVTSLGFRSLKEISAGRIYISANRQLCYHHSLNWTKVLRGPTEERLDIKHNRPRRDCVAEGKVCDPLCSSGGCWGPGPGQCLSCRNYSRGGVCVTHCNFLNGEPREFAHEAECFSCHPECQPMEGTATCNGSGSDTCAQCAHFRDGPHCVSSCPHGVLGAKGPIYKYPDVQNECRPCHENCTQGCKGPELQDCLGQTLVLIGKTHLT

B1: W3162-1.146.19-z12-uAb.IgG1K (antibody, V domains shown)
VH: QVQLQESGPGLVKPSETLSLTCSVTYHTITSGYDWTWIRKPPGKGMEWIGYISYSGNTNYNPSLKSRVTISRDTSKNQFFLKLSSVTAADTAVYYCASMMVPHYYVMDAWGQGTLVTVSS
VL: DIVMTQTPLSLSVTPGQPASISCRSSQSLLNSDGNTYLYWYLQKPGQSPQLLIYLVSKLGSGVPNRFSGSGSGTDFTLKISRVEAEDVGVYYCVQGTHDPWTFGGGTKVEIK
notes: Humanized; label says IgG1K
A word on the IC50: it is the concentration that inhibits the measured activity by half. In general, EC50 refers to the midpoint of the concentration-response curve. A lower EC50 goes with greater potency. In general, Kd refers to a measure of binding affinity in units of concentration. A higher Kd goes with a looser complex. With B1, the binding result in the assay with PD-1, with 4-1BB.ECD, with CD3e.ECD and in the assay with HER3.ECD was “no binding (tested: 10 ug/mL)” each time. For the same molecule, the figures for the IC50 in the assay with human CTLA-4.ECD.hFc and with hCTLA-4.ECD.hFc-Biotin were 0.71 nM and 6.6 nM, respectively. The molecule also showed an EC50 with human CTLA-4.ECD-6×His of 0.03 nM. Moreover, the affinity in assay [1], expressed as Kd, was 5 nM.

B2: W3162_1.154.8-z35-uAb.IgG1K (antibody, V domains shown)
VH: QVQLVQSGAEVKKPGSSVKVSCKASGYTFTNYFMNWVRQAPGQGLEWMGRVDPEQGRADYAEKFKKRVTITADKSTSTAYMELSSLRSEDTAVYYCARRAMDNYGFAYWGQGTLVTVSS
VL: EIVLTQSPDFQSVTPKEKVTITCSANSALSYMYWYQQKPDQSPKLWVHGTSNLASGVPSRFSGSGSGTDFTLTINSLEAEDAATYYCHHWSNTQWTFGGGTKVEIK
notes: Humanized; label says IgG1K
Consider B2, for which the binding result in the assay with PD-1, with 4-1BB.ECD, in the assay with CD3e.ECD and with HER3.ECD was “no binding (tested: 10 ug/mL)” each time. For the same molecule, the IC50 was found to be 0.5 nM in the assay with human CTLA-4.ECD.hFc and 0.07 nM with hCTLA-4.ECD.hFc-Biotin. In addition, the EC50 with human CTLA-4.ECD-6×His worked out at 0.04 nM. This molecule also displayed a Kd in assay [1] of 0.35 nM.
